Molecular target: cynomolgus monkey CTLA4 (human CTLA4 cDNA with S13N, I17T and L105M) on stably transfected CHO-K1 cells (human cDNA mutated to the cynomolgus monkey extracellular domain) (UniProt P16410)
Test: FACS direct binding titration on CHO cells with cynomolgus CTLA4 (head prints IC50)

cynomolgus monkey CTLA4 (human CTLA4 cDNA with S13N, I17T and L105M) on stably transfected CHO-K1 cells (human cDNA mutated to the cynomolgus monkey extracellular domain), sequence (P16410 36-223, stated change not applied): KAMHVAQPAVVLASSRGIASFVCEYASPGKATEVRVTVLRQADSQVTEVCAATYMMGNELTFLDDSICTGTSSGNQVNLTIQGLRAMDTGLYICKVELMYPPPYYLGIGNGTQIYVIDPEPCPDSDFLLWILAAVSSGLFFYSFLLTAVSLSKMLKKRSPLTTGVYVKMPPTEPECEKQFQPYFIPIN

Row | Binder | IC50
1 | 4CTLAPMP03C4 (VHH) VHH: EVQLVESGGGLVQAGGSLRLSCAASGGTFSFYGMGWFRQAPGKEREFVADIRTSAGRTYYADSVKGRFTISRDNAKNTVYLQMNSLKPEDTAVYYCAAEMSGISGWDYWGQGTQVTVSS | 6.73 nM
2 | 4CTLAPMP11F1 (VHH) VHH: EVQLVESGGGLVQAGGSLRLSCAASGGTFSFYGMGWFRQAPGKEQEFVADIRTSAGRTYYADSVKGRFTISRDNAKNTVYLQMNSLKPEDTAVYYCAAEMSGISGWDYWGQGTQVTVSS | 5.51 nM
3 | 4CTLAPMP06C10 (VHH) VHH: EVQLVESGGGLVQAGGSLRLSCAASGRTFSNYTIAYFRQAPGREREFAAAISPHGTLRSFADSVKDRFTISRDNAKNTVWLQMNSLKLEDTAVYYCAADPSGWGLRQHSENEYPYWGLGTQVTVSS | 5.47 nM
4 | 4CTLAPMP11E3 (VHH) VHH: EVQLVESGGGLVEPGGSLRLSCAASGSISSYNVMGWYRQAPGQQRDLVAHIASNGEIMYADSAKGRFTISRDNAKKTVYLQMNSLKPEDTAVYYCKLWVLGNDYWGQGTQVTVSS | 4.5 nM
5 | 4CTLAPMP12H2 (VHH) VHH: EVQLVESGGGLVEPGGSLRLSCAASGSISSYNVMGWYRQAPGQQRDLVAHIASNGEIMYADSAKGRFTISRDNAKKTVYLQMNSLKPEDTAVYYCKLWVLGNDYWGQRTQVTVSS | 5.65 nM
6 | 4CTLAPMP02A5 (VHH) VHH: EVQLVESGGGLVQAGGSLRLSCAASGRTNSTTLMGWSRRAPGKEREFVAAISGSGTLTSYADSVKGRFAISRDNAKNTVYLQMNSLKPEDTAIYYCAAGLTSWALIPSRTLTTWGQGTQVTVSS | 7.74 nM

These reach a lower IC50. Values come first.

Row | IC50 | Binder
7 | 2.66 nM | 4CTLAPMP2G9 (VHH) VHH: EVQLVKSGGQLVQAGGSLRLSCAATGRTYNSYPLGWFRQAPGKEREFVAAISASGTLRAYADSVKGRFTISRDSAKNTVYLQMNNLKPEDTAVYYCARARSVGWRASHHLSDYDNWGQGTQVTVSS
8 | 2.42 nM | 4CTLAPMP02F2 (VHH) VHH: EVQLMESGGGLVQTGGSLRLSCAASGRTFSNYTMGWFRQAPGKDREFVAAISRSGSLKAYADSVKGRFTPSRDNAKKMAYLQMNSLKPEDTAVYYCAAAPVPWGTRPSLFPYDSWGQGTQVTVSS
9 | 2.36 nM | 4CTLAPMP02F4 (VHH) VHH: EVQLVESGGGLVQTGGSLRLSCAASGRTFSNYTMGWFRQAPGKDREFVAAISRSGALKAYADSVKGRFTPSRDNAKKMAYLQMNSLKPEDTAVYYCAAAPVPWGTRPSFFPYDSWGQGTQVTVSS
10 | 2.08 nM | 4CTLAPMP02G2 (VHH) VHH: EVQLVESRGGLVQTGGSLRLSCAASGRTFSNYTMGWFRQAPGKDREFVAAISRSGSLKSYADSVKGRFTISRDNAKKMAYLQMNSLKPEDTAVYYCAAAPVPWGTRPSFFTYDSWGQGTQVTVSS

From patent publication US20160280786A1
